In the RNAGym collection of RNA variant scans (doi:10.1101/gr.219683.116):

B1: mRNA-splicing (parent)
chain: AGUUGCUGCUGGGAGCUCCAGCACAGUGAAAUGGACAGAAGGGCAGAGCAA

Variants of: B1
Experiment: exon inclusion enrichment index; higher = more inclusion; WT1 exon 5 minigene, HEK293

Going from AGUUCACACAGGGAGCUCCAGCACAGUGAAAUGUGCAGAAGGGCAGAGCAA [G5C C6A U7C G8A U10A G34U A35G] to AGUUCACACAGGGAGCUCCAGCACAGUGAAAUGUCCAGAAGGGCAGAGCAA [G5C C6A U7C G8A U10A G34U A35C], the “exon inclusion enrichment index” value falls from 0.0186 to 0.0109.

Compared with AGUUCACACAGGGAGCUCCAGCACAGUGAAAUGGACAGAAAGGCAGAGCAA [G5C C6A U7C G8A U10A G41A], AGUUCACACAGGGAGCUCCAGCACAGUGAAAUGGACAGAACGGCAGAGCAA [G5C C6A U7C G8A U10A G41C] is higher in “exon inclusion enrichment index” value: 0.0572 for the first, 0.467 for the second.

Going from AGUUCACACAGGGAGCUCCAGCACAGUGAAAUGGACAGAAUGGCAGAGCAA [G5C C6A U7C G8A U10A G41U] to AGUUCACACAGGGAGCUCCAGCACAGUGAAAUGGACAGAACUGCAGAGCAA [G5C C6A U7C G8A U10A G41C G42U], the “exon inclusion enrichment index” value rises from 0.102 to 0.481.

First: AGUUCACACAGGGAGCUCCAGCACAGUGAAAUGGACAGAACCGCAGAGCAA [G5C C6A U7C G8A U10A G41C G42C]
Second: AGUUCACACAGGGAGCUCCAGCACAGUGAAAUGGACAGAACAGCAGAGCAA [G5C C6A U7C G8A U10A G41C G42A]
The “exon inclusion enrichment index” value of the first is higher: 0.654 for the first, 0.141 for the second.

Compared with AGUUCACACAGGGAGCUCCAGCACAGUGAAAUGGACAGAAGGAAAGAGCAA [G5C C6A U7C G8A U10A G43A C44A], AGUUCACACAGGGAGCUCCAGCACAGUGAAAUGGACAGAAGGAUAGAGCAA [G5C C6A U7C G8A U10A G43A C44U] is lower in “exon inclusion enrichment index” value: 0.532 for the first, 0.16 for the second.

First: AGUUCACACAGGGAGCUCCAGCACAGUGAAAUGGACAGAAGGAGAGAGCAA [G5C C6A U7C G8A U10A G43A C44G]
Second: AGUUCACACAGGGAGCUCCAGCACAGUGAAAUGGACAGAAGUUCAGAGCAA [G5C C6A U7C G8A U10A G42U G43U]
The “exon inclusion enrichment index” value of the first is higher: 0.71 for the first, 0.305 for the second.

Compared with AGUUCACACAGGGAGCUCCAGCACAGUGAAAUGGACAGAAGUCCAGAGCAA [G5C C6A U7C G8A U10A G42U G43C], AGUUCACACAGGGAGCUCCAGCACAGUGAAAUGGACAGAAGUACAGAGCAA [G5C C6A U7C G8A U10A G42U G43A] is higher in “exon inclusion enrichment index” value: 0.0644 for the first, 0.386 for the second.

First: AGUUCACACAGGGAGCUCCAGCACAGUGAAAUGGACAUUAGGGCAGAGCAA [G5C C6A U7C G8A U10A G38U A39U]
Second: AGUUCACACAGGGAGCUCCAGCACAGUGAAAUGGACAUCAGGGCAGAGCAA [G5C C6A U7C G8A U10A G38U A39C]
The “exon inclusion enrichment index” value of the first is lower: 0.00131 for the first, 0.0552 for the second.

Compared with AGUUCACACAGGGAGCUCCAGCACAGUGAAAUGGACAUGAGGGCAGAGCAA [G5C C6A U7C G8A U10A G38U A39G], AGUUCACACAGGGAGCUCCAGCACAGUGAAAUUGACAGAAGGGCAGAGCAA [G5C C6A U7C G8A U10A G33U] is higher in “exon inclusion enrichment index” value: 0.0343 for the first, 0.0519 for the second.

First: AGUUCACACAGGGAGCUCCAGCACAGUGAAAUAGACAGAAGGGCAGAGCAA [G5C C6A U7C G8A U10A G33A]
Second: AGUUCACACAGGGAGCUCCAGCACAGUGAAAUCGACAGAAGGGCAGAGCAA [G5C C6A U7C G8A U10A G33C]
The “exon inclusion enrichment index” value of the first is lower: 0.00667 for the first, 0.162 for the second.

First: AGUUCACACAGGGAGCUCCAGCACAGUGAAAUGGACAGAAGGCAAGAGCAA [G5C C6A U7C G8A U10A G43C C44A]
Second: AGUUCACACAGGGAGCUCCAGCACAGUGAAAUGGACAGAAGGCUAGAGCAA [G5C C6A U7C G8A U10A G43C C44U]
The “exon inclusion enrichment index” value of the first is higher: 0.602 for the first, 0.0879 for the second.

Going from AGUUCACACAGGGAGCUCCAGCACAGUGAAAUGGACAGAAGGCGAGAGCAA [G5C C6A U7C G8A U10A G43C C44G] to AGUUCACACAGGGAGCUCCAGCACAGUGAAAUUCACAGAAGGGCAGAGCAA [G5C C6A U7C G8A U10A G33U G34C], the “exon inclusion enrichment index” value falls from 1.22 to 0.00585.

First: AGUUCACACAGGGAGCUCCAGCACAGUGAAAUUAACAGAAGGGCAGAGCAA [G5C C6A U7C G8A U10A G33U G34A]
Second: AGUUCACACAGGGAGCUCCAGCACAGUGAAAUUUACAGAAGGGCAGAGCAA [G5C C6A U7C G8A U10A G33U G34U]
The “exon inclusion enrichment index” value of the first is higher: 0.0098 for the first, 0.00723 for the second.

First: AGUUCACACAGGGAGCUCCAGCACAGAGAAAUGGACAGAAGGGCAGAGCAA [G5C C6A U7C G8A U10A U27A]
Second: AGUUCACACAGGGAGCUCCAGCACAGUGAAAUGGACAGAAAAGCAGAGCAA [G5C C6A U7C G8A U10A G41A G42A]
The “exon inclusion enrichment index” value of the first is higher: 0.151 for the first, 0.101 for the second.

Compared with AGUUCACACAGGGAGCUCCAGCACAGUGAAAUGGACAGAAAUGCAGAGCAA [G5C C6A U7C G8A U10A G41A G42U], AGUUCACACAGGGAGCUCCAGCACAGUGAAAUGGACAGAAACGCAGAGCAA [G5C C6A U7C G8A U10A G41A G42C] is higher in “exon inclusion enrichment index” value: 0.105 for the first, 0.264 for the second.

First: AGUUCACACAGGGAGCUCCAGCACAGUGAAAUGGACAACAGGGCAGAGCAA [G5C C6A U7C G8A U10A G38A A39C]
Second: AGUUCACACAGGGAGCUCCAGCACAGUGAAAUGGACAAGAGGGCAGAGCAA [G5C C6A U7C G8A U10A G38A A39G]
The “exon inclusion enrichment index” value of the first is higher: 0.107 for the first, 0.102 for the second.

First: AGUUCACACAGGGAGCUCCAGCACAGUGAAAUGGACAAUAGGGCAGAGCAA [G5C C6A U7C G8A U10A G38A A39U]
Second: AGUUCACACAGGGAGCUCCAGCACAGUGAAAUGGACAGAAGGGCACCGCAA [G5C C6A U7C G8A U10A G46C A47C]
The “exon inclusion enrichment index” value of the first is lower: 0.0079 for the first, 0.209 for the second.

First: AGUUCACACAGGGAGCUCCAGCACAGUGAAAUGGACAGAAGGGCACGGCAA [G5C C6A U7C G8A U10A G46C A47G]
Second: AGUUCACACAGGGAGCUCCAGCACAGUGAAAUGGACAGAAGGGCACUGCAA [G5C C6A U7C G8A U10A G46C A47U]
The “exon inclusion enrichment index” value of the first is higher: 0.199 for the first, 0.141 for the second.

Compared with AGUUCACACAGGGAGCUCCAGCACAGUGAAAUAUACAGAAGGGCAGAGCAA [G5C C6A U7C G8A U10A G33A G34U], AGUUCACACAGGGAGCUCCAGCACAGUGAAAUACACAGAAGGGCAGAGCAA [G5C C6A U7C G8A U10A G33A G34C] is higher in “exon inclusion enrichment index” value: 0.00646 for the first, 0.0321 for the second.

Compared with AGUUCACACAGGGAGCUCCAGCACAGUGAAAUAAACAGAAGGGCAGAGCAA [G5C C6A U7C G8A U10A G33A G34A], AGUUCACACAGGGAGCACCAGCACAGUGAAAUGGACAGAAGGGCAGAGCAA [G5C C6A U7C G8A U10A U17A] is higher in “exon inclusion enrichment index” value: 0.00429 for the first, 0.106 for the second.

Compared with AGUUCACACAGGGAGCGCCAGCACAGUGAAAUGGACAGAAGGGCAGAGCAA [G5C C6A U7C G8A U10A U17G], AGUUCACACAGGGAGCCCCAGCACAGUGAAAUGGACAGAAGGGCAGAGCAA [G5C C6A U7C G8A U10A U17C] is lower in “exon inclusion enrichment index” value: 0.0684 for the first, 0.0444 for the second.

Compared with AGUUCACACAGGGAGCUCCAGCACAGUGAAAUGGACAGAAGCACAGAGCAA [G5C C6A U7C G8A U10A G42C G43A], AGUUCACACAGGGAGCUCCAGCACAGUGAAAUGGACAGAAGCCCAGAGCAA [G5C C6A U7C G8A U10A G42C G43C] is higher in “exon inclusion enrichment index” value: 0.455 for the first, 0.652 for the second.

Going from AGUUCACACAGGGAGCUCCAGCACAGUGAAAUGGACAGAAGCUCAGAGCAA [G5C C6A U7C G8A U10A G42C G43U] to AGUUCACACAGGGAGCAGCAGCACAGUGAAAUGGACAGAAGGGCAGAGCAA [G5C C6A U7C G8A U10A U17A C18G], the “exon inclusion enrichment index” value falls from 0.483 to 0.0895.

First: AGUUCACACAGGGAGCAUCAGCACAGUGAAAUGGACAGAAGGGCAGAGCAA [G5C C6A U7C G8A U10A U17A C18U]
Second: AGUUCACACAGGGAGCAACAGCACAGUGAAAUGGACAGAAGGGCAGAGCAA [G5C C6A U7C G8A U10A U17A C18A]
The “exon inclusion enrichment index” value of the first is higher: 0.0447 for the first, 0.043 for the second.

Going from AGUUCACACAGGGAGCUCCAGCACAGUGAAAUGCCCAGAAGGGCAGAGCAA [G5C C6A U7C G8A U10A G34C A35C] to AGUUCACACAGGGAGCUCCAGCACAGUGAAAUGCGCAGAAGGGCAGAGCAA [G5C C6A U7C G8A U10A G34C A35G], the “exon inclusion enrichment index” value rises from 0.0037 to 0.0658.

For AGUUCACACAGGGAGCUCCAGCACAGUGAAAUGCUCAGAAGGGCAGAGCAA [G5C C6A U7C G8A U10A G34C A35U], the “exon inclusion enrichment index” value was 0.0152.
